Here are results for five molecules from patent US20260109773A1 (HARPOON THERAPEUTICS, published 2026).

The labels stand for the following.
B3: human BCMA on BCMA-expressing cell lines (receptor)
chain: MLQMAGQCSQNEYFDSLLHACIPCQLRCSSNTPPLTCQRYCNASVTNSVKGTNAILWTCLGLSLIISLAVFVLMFLLRKINSEPLKDEFKNTGSGLLGMANIDLEKSRTGDEIILPRGLEYTVEECTCEDCIKSKPKVDSDHCFPLPAMEEGATILVTTKTNDYCKSLPAALSATEIEKSISAR
notes: BCMA as expressed by human tumour cell lines; also called BCMA expressing cells (EJM, Jeko1, MOLP-8, OPM-2, NCI-H929, RPMI-8226)

Test [1] has as its target T1, 02B05 TriTAC.
T1 construct: TriTAC trispecific; His6 in entry; also called exemplary BCMA targeting trispecific protein (02B05)
In words: Octet; 2.5 nM cynomolgus CD3ε-Fc on streptavidin tips; 15 mg/ml HSA; n=2. On the procedure:
(§1) The affinities were measured using an Octet instrument. For these measurements, streptavidin tips were first loaded with 2.5 nM human BCMA-Fc, 2.5 nM cynomolgous BCMA-Fc, 2.5 nM human CD3ε-Fc, 2.5 nM cynomolgus CD3ε-Fc, 50 nM human serum albumin (HSA), 50 nM cynomolgus serum albumin, or 50 nM mouse serum albumin. […] Average calculated KD values from these studies are provided in Table 4 (n indicates the number of independent measurements, n/d indicates no binding detected under the conditions tested).

In test [2] the target is T1, 02B05 TriTAC. In words: Octet; 2.5 nM human CD3ε-Fc on streptavidin tips; 15 mg/ml HSA; n=2. On the procedure: as §1
T1 sequence (chain, as listed by the source): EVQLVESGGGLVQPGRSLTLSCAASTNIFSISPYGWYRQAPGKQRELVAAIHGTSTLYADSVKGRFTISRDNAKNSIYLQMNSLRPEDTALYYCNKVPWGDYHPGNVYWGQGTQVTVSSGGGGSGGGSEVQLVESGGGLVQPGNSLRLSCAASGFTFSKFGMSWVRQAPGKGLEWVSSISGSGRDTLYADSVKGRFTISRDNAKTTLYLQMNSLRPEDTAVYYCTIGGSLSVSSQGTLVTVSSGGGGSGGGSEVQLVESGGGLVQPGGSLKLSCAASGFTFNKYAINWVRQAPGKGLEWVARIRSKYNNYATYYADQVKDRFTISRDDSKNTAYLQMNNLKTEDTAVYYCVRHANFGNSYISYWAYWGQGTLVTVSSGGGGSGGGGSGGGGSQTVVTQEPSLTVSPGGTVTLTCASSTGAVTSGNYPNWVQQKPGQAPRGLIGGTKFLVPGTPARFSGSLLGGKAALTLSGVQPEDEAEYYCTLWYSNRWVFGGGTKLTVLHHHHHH
(In general: BLI is a label-free optical method that tracks binding on a fibre tip over time.)

In test [3] the target is T1, 02B05 TriTAC. In words: flow cytometry on NCI-H929 cells (BCMA RNA FPKM 1931); bound protein detected with an Alexa Fluor 647 antibody against the anti-albumin domain; negative control: GFP trispecific protein.
The target of test [4] is T1, 02B05 TriTAC. In words: Octet; 50 nM cynomolgus serum albumin on streptavidin tips; n=1. On the procedure: as §1
Test [5] has as its target B3. The test can be described thus: cell-based or functional assay.
The target of test [6] is T2, human BCMA protein (human, UniProt Q02223 1-54, limits assumed).
T2 sequence: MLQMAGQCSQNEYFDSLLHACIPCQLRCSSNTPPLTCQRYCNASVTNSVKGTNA
The test can be described thus: affinity to human BCMA protein; method not stated.

B1: cynomolgus CD3ε-Fc (Fc fusion, UniProt Q95LI5 22-117, looked up)
chain: QDGNEEMGSITQTPYQVSISGTTVILTCSQHLGSEAQWQHNGKNKEDSGDRLFLPEFSEMEQSGYYVCYPRGSNPEDASHHLYLKARVCENCMEMD
notes: loaded on streptavidin tips; not shown: Fc part
The Kd is the concentration at which binding is half-saturated. The low end stands for tighter binding, the high end for weaker binding. As to B1, binding in test [1] was characterised by a dissociation constant (Kd) of 7.8 nM.

B2: human CD3ε-Fc (Fc fusion, UniProt P07766 23-126, looked up)
chain: DGNEEMGGITQTPYKVSISGTTVILTCPQYPGSEILWQHNDKNIGGDEDDKNIGSDEDHLSLKEFSELEQSGYYVCYPRGSKPEDANFYLYLRARVCENCMEMD
notes: as for B1
On to B2, for which binding in test [2] was characterised by a dissociation constant (Kd) of 8 nM. Turning to B3, the binding result in test [3] is “binds”.

B4: cynomolgus serum albumin (other, UniProt A2V9Z4 25-608, looked up)
chain: DTHKSEVAHRFKDLGEEHFKGLVLVAFSQYLQQCPFEEHVKLVNEVTEFAKTCVADESAENCDKSLHTLFGDKLCTVATLRETYGEMADCCAKQEPERNECFLQHKDDNPNLPPLVRPEVDVMCTAFHDNEATFLKKYLYEVARRHPYFYAPELLFFAARYKAAFAECCQAADKAACLLPKLDELRDEGKASSAKQRLKCASLQKFGDRAFKAWAVARLSQKFPKAEFAEVSKLVTDLTKVHTECCHGDLLECADDRADLAKYMCENQDSISSKLKECCDKPLLEKSHCLAEVENDEMPADLPSLAADYVESKDVCKNYAEAKDVFLGMFLYEYARRHPDYSVMLLLRLAKAYEATLEKCCAAADPHECYAKVFDEFQPLVEEPQNLVKQNCELFEQLGEYKFQNALLVRYTKKVPQVSTPTLVEVSRNLGKVGAKCCKLPEAKRMPCAEDYLSVVLNRLCVLHEKTPVSEKVTKCCTESLVNRRPCFSALELDEAYVPKAFNAETFTFHADMCTLSEKEKQVKKQTALVELVKHKPKATKEQLKGVMDNFAAFVEKCCKADDKEACFAEEGPKFVAASQAALA
notes: loaded on streptavidin tips
As to B4, in test [4], the Kd amounted to 7.5 nM.

B5: 253BH10 trispecific protein (other, not shown: large carriers)
chain: QVQLVESGGGLVQPGESLRLSCAASTNIFSISPMGWYRQAPGKQRELVAAIHGFSTLYADSVKGRFTISRDNAKNTIYLQMNSLKPEDTAVYYCNKVPWGDYHPRNVYWGQGTQVTVSS
notes: also called molecule with the parental CDRs
B5: the “TDCC EC50, EJM cells” value in test [5] is 0.0529 nM. The same molecule yielded a Kd in test [6] of 27.7 nM.
